Reference: patent publication US20260226524A1, “GLUTAMINE SYNTHETASE MARKER FOR RECOMBINANT EXPRESSION” (priority 2023, published 2026)

Legend:
[1] = test system: Chinese Hamster Ovary CHO-K1 (CCL-61) host cell; test: Bio-Layer Interferometry (Octet) analysis of denosumab expression in supernatants of cell pools selected with GS markers; assay type: cell-based; conditions: 50 μM MSX
Experimental: Vector design: Nearly all selectable marker currently used in GS system is Cricetulus griseus-derived GS.
(§1) After random integration, GS expression in each individual cell was evaluated by monitoring UnaG level using flow cytometry. Denosumab here served as the secreted reporter for assessing titers using selectable glutamine synthetase markers from different species. The vectors differed from one another by the GS-coding sequences, which were derived from Chinese hamster (Cricetulus griseus), koala (Phascolarctos cinerecus), vesper bat (Pipistrellus kuhlii), gerbil (Meriones unguiculatus), ostrich (Struthio camelus australis), junglefowl (Gallus gallus), pigeon (Columbia Livia), and snake (Pseudonaja textilis), respectively.
(§2) Electroporation and cell screening: Expression vectors described above were first linearized by the restriction endonuclease Pvul (there was one Pvul site in the ampicillin resistant gene). Then linearized vectors were introduced into the host cell using cell electroporator (Lonza Nuleofector 2b). The host cell was derived from ATCC wild-type Chinese Hamster Ovary CHO-K1 (CCL-61) and adapted to serum-free suspension culture at Shanghai ZhenGe Biotech Co. Ltd. 24 hours post electroporation, cell pools were plated into culture flasks or 96-well plates (approximately 1, 200 cells/well, 300 wells per condition) in the absence of or presence of MSX (50 μM).

[2] = test system: Chinese Hamster Ovary CHO-K1 (CCL-61) host cell; test: Flow cytometry analysis of GS expression via UnaG fluorescence in electroporated cell pools; assay type: cell-based; conditions: about 3 weeks post-seeding, MSX selection, FIGS. 3A-3B
Description: Vector design: Nearly all selectable marker currently used in GS system is Cricetulus griseus-derived GS. To investigate whether the GS from other species further improve titer or screening efficiency, a set of vectors were designed as described below: • a sequence coding for an eel green fluorescent protein UnaG, a 2A self-cleaving peptide and a glutamine synthetase, placed under the control of the SV40 promoter; • two expression cassettes, in which the sequences coding for the heavy chain and light chain of a human anti-RANKL antibody denosumab were placed under the control of CMV promoters, respectively; • a sequence coding for a protein conferring resistance to ampicillin, for use in prokaryotic cells; and • a prokaryotic origin of replication.
as §1, with “The 2A self-cleaving peptide allowed relatively equal molar expression of the two products separated by it, namely, the green fluorescent protein UnaG and glutamine synthetase. After” for “After”
as §2
Flow cytometry analysis of GS expression: About 3 weeks post-seeding, cell pools electroporated with GS gene from indicated species were analyzed using Attune NxT flow cytometer (FIGS. 3A-3C). […] As shown, when the GS from Chinese Hamster was used as the selectable marker, most tested cells (>98%) remained UnaG “negative” in the presence of the MSX, indicating low selection efficiency.

B1: vesper bat GS: Pipistrellus kuhlii glutamine synthetase, SEQ ID NO: 8 (nucleotide SEQ ID NO: 17), used as selectable marker (protein, listed as Pipistrellus kuhlii)
chain: MSTSASSQLNKGIKQMYMSLPQGDKVLAMYIWIDGTGEGLRCKTRTLDSEPKSIDELPEWNFDGSSTMQSEGSNSDMYLIPVAMFRDPFRKDPNKLIFCEVFKYNHKPAETNLRYTCKRIMDMVSNQHPWFGMEQEYTLMGTDGHPFGWPSNGFPGPQGPYYCGVGADRAYGRDIVEAHYRACLYAGIKIGGTNAEVMPAQWEFQIGPCEGIEMGDHLWVARFILHRVCEDFGVIATFDPKPIPGNWNGAGCHTNFSTKAMREENGLKYIEESIERLSKRHQYHIRAYDPKGGQDNARRLTGFHETSNINDFSAGVANRSASIRIPRAVGQEKKGYFEDRRPSANCDPFAVTEALIRTCLLNETGDEPFQYKN
modifications: Vesper bat GS
**Q.** What does the source list for B1?
**A.** pools expressed detectable denosumab (>0.125 ug/mL) ([1]; Day 20, among 300 seeded pools in 96-well plates, GS used as selectable marker): 94.0%; median expression value of denosumab of positive pools ([1]; Day 20, positive pools (>0.125 ug/mL), Octet ProA biosensor): 3.39 µg/mL; UnaG expression of cells (selection efficiency) [2]: significant amounts of cells showed positive UnaG expression
